Measurements as given in patent US20100322931A1 (AbbVie / Abbott, published 2010).

Target: T1, VEGF (R&D systems, Minneapolis, Minn.) (UniProt P15692-4 27-191, limits assumed)
T1 construct: Soluble analyte in the BIAcore assay; also called vascular endothelial growth factor; VEGFA
Experiment: SPR (BIAcore 2000/3000), antibody captured on anti-human Fc, VEGF as analyte, 1:1 Langmuir fit; variant corresponding to SEQ ID NO:82, the tightest of the variants
Description: RL was kept low to minimize avidity due to the dimeric nature of VEGF. No capture of the antibody was made on the reference surface to serve as a negative control. Subsequently, VEGF was injected to all flow cells at a flow rate of 50 μL/min for two minutes to monitor association followed by a 25-minute flow of HBS-P running buffer (10 mM HEPES, 150 mM sodium chloride, 0.005% P-20, pH 7.4) to monitor the dissociation phase. At each cycle, VEGF, in 6 different concentrations of VEGF ranging between 0 nM and 512 nM and at four-fold increments, was injected over the surface. […] Binding data were fit to the 1:1 Langmuir model to extract binding constants from the BIAevaluate software. Double referencing was applied in each analysis to eliminate background responses from the reference surface and buffer only control. All the binding kinetics data were analyzed at least three separate determinations.

T1 sequence (P15692 other isoform, or with tags, fused parts or gaps limits assumed): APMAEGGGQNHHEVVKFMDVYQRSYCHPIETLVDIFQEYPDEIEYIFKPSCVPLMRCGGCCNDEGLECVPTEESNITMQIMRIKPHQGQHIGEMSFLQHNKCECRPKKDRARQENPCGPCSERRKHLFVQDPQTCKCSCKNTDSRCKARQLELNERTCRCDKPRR

Kd: 0.08 nM
B1: bevacizumab variant corresponding to SEQ ID NO:82 (antibody, V domains shown)
VH: EVQLVESGGGLVQPGGSLRLSCAASGYTFTFYGMNWVRQAPGKGLEWVGWINTYTGEPTYAADFKRRFTFSLDTSKSTAYLQMNSLRAEDTAVYYCAKYPDYDGGSHWYFDVWGQGTLVTVSS
VL: DIQMTQSPSSLSASVGDRVTITCSASQDISNYLNWYQQKPGKAPKVLIYFTSSLHSGVPSRFSGSGSGTDFTLTISSLQPEDFATYYCQQYSTVPWTFGQGTKVEIKR
notes: Variant VH cloned with the unmodified VL into a human IgG1-containing plasmid and expressed in 293T/17 cells
